The record followed here is paper PMC12362114.

Series [1] has as its target 3xFlag-FASN wild type (fatty acid synthase) (UniProt P49327). In words: native gel or EMSA; lysates of transfected Hep3B cells (10 mM Tris/HCl, 1 mM EDTA, 1 mM EGTA, 0.5% Triton X-100, pH 7.5) on a 4-to-10% gradient gel, 50 V overnight at 4 °C, blotted for 3xFlag-FASN; monomers (~250 kDa) and dimers (~500 kDa).
A short description of series [2]: anti-Flag Western blot, Hep3B lysates. Particulars: glycan lost; control: wild type 3xFlag-FASN. On the technique in general: Immunoblotting shows a protein as a band on a membrane.
Series [3] is described as follows: BODIPY 493/503 staining, confocal, droplet count. The settings on record: glycan lost; control: wild type 3xFlag-FASN.
Series [4] in a line: cell fractionation (membrane vs cytosol), Western blot. The settings on record: glycan lost; control: wild type 3xFlag-FASN.
Series [5] is described as follows: cycloheximide chase 0-24 h, protein remaining. Particulars: glycan lost; control: wild type 3xFlag-FASN.

As to “3xFlag-FASN wild type (fatty acid synthase), P49327 1-2511”, in series [1], the stoichiometry N (commonly a count of units in the complex or per binding partner) is 2.
As to Fatty Acid Synthase (FASN): S595A, in series [2], the expression_or_secretion result is recorded as “decreases”. The “other: lipid droplet number (activity proxy)” value in series [3] is on record as “no change”. The localisation_or_trafficking entry in series [4] is recorded as “no change”.
Turning to Fatty Acid Synthase (FASN): T980A, the expression_or_secretion entry in series [2] was “decreases”. In series [4], the localisation_or_trafficking entry is “decreases”. Besides, the degradation_or_half_life result in series [5] is reported as “decreases”.
